Source: article PMC3013012

What was measured:
[1] = target: SETDB1 peptide RQVAVKme2STRGFALKme2STHGIAIKme2STN (human)
[2] = target: SETDB1 peptide RQVAVKme3STRGFALKme3STHGIAIKme3STN (human)

| Kd [1] [µM] | Kd [2] [µM] | Substance |
| --- | --- | --- |
| 180 | – | Cbx8 chromodomain, Cbx8-(8–61) (from UniProt Q9HC52 8-61) (domain or fragment) |
| 15 | 1.2 | Cbx7 chromodomain, Cbx7-(8–62) (from UniProt O95931 8-62) (domain or fragment) |
